Assay results reported in the supplement of paper PMC9732359.
± gives the uncertainty stated by the source.

Test: protein stability index of a GFP-peptide fusion (yeast GPS) (PSI 1-4); higher = more stable; sorted into four equal gates, so the index is relative within each strain
Summary of the method: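 Sequencing reads from sorted gates were used to score each peptide. The library consisted of tiled 17-residue yeast protein peptides fused downstream of GFP on a Cherry-expressing plasmid, pooled and carried in yeast. Mid-log cultures in leucine-free medium were split into four equal gates by GFP/Cherry ratio, and each gate's plasmids were PCR-amplified and Illumina-sequenced. The protein stability index adds up, over all gates, the read frequency multiplied by the gate number.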

| Sequence | protein stability index (pdr5∆) | protein stability index (san1∆) | protein stability index (doa10∆) | protein stability index (ubr1∆) |
| --- | --- | --- | --- | --- |
| RGAHVEKTMVKKNLGRL [PRP8] | 3.29 ± 0.16 | 3.14 ± 0.18 |  |  |
| MIVPVRCFSCGKVVGDK [RPB10] | 2.59 ± 0.12 | 2.13 ± 0.1 | 2.64 ± 0.17 | 2.66 ± 0.092 |
| ERDFYHSLREYINGKAT [RPO31] | 2.43 ± 0.044 | 2.9 ± 0.037 | 2.58 ± 0.044 | 1.75 ± 0.023 |
| LTHSTPKNFGIGQAVQP [RPL8A] | 3.01 ± 0.045 | 3.02 ± 0.033 | 3.06 ± 0.06 | 3.18 ± 0.036 |
| QETASPLSQDELISLRK [YIL149C/MLP2] | 2.22 ± 0.074 | 1.89 ± 0.11 | 2.42 ± 0.06 | 2.13 ± 0.061 |
| ELLKLLNDEYNYPQLTE [YCS4] | 3.11 ± 0.098 | 3.03 ± 0.059 | 3.09 ± 0.096 | 3.25 ± 0.06 |
| NKNGNAVCSTATVVSTN [PGD1] | 2.83 ± 0.061 | 2.3 ± 0.073 | 2.77 ± 0.059 | 2.81 ± 0.053 |
| MVEGDSYVETLDSMIEL [MED1] | 3.24 ± 0.1 | 3.33 ± 0.051 | 3.25 ± 0.084 | 3.19 ± 0.053 |
| HSVQETNKISPKDFSPN [SSN2] | 2.68 ± 0.078 | 2.93 ± 0.054 | 3.37 ± 0.094 | 3.11 ± 0.07 |
| LVHDGLARGLRESTKAL [RPS12] | 3.52 ± 0.15 | 3.19 ± 0.17 | 3.41 ± 0.091 | 2.83 ± 0.17 |
| RNDKTLELMDSKKTGQF [POP1] | 3.44 ± 0.06 | 3.18 ± 0.064 | 3.34 ± 0.069 | 3.37 ± 0.05 |
| SGCENITDKTIESIVNL [GRR1] | 2.94 ± 0.099 | 1.54 ± 0.19 | 2.81 ± 0.13 | 2.98 ± 0.078 |
| NDQDMFTIVSLVQLKKF [YML103C/NUP188] | 2.84 ± 0.11 | 1.93 ± 0.17 | 2.18 ± 0.12 | 2.04 ± 0.14 |
| TFGIRRNEKIAVHVTVR [RPL11A] | 1.68 ± 0.076 | 2.12 ± 0.081 | 2.17 ± 0.082 | 2.21 ± 0.072 |
| YTPEESAWIWPMDEETK [RPC25] | 2.62 ± 0.074 | 2.54 ± 0.086 | 2.34 ± 0.068 | 2.65 ± 0.098 |
| NGDEGDDENEPKRKRRL [YOR098C/NUP1] | 3.24 ± 0.14 | 3.17 ± 0.083 | 3.38 ± 0.11 | 3.06 ± 0.071 |
| KFFRVKYENKISTVIEV [SMC3] | 1.2 ± 0.11 | 1.09 ± 0.28 | 1.35 ± 0.13 | 1.12 ± 0.087 |
| VHPVNEREPVPLGILHI [RRP45] | 2.63 ± 0.16 |  |  | 2.15 ± 0.19 |
| DFVRKGGLQKGKLVVSQ [SIR3] | 3.22 ± 0.091 | 2.75 ± 0.055 | 3.14 ± 0.079 | 3.35 ± 0.077 |
| RQNRNQEIFDANVQRLK [RPL13A] | 3.19 ± 0.085 | 3.19 ± 0.055 | 3.15 ± 0.078 | 3.4 ± 0.055 |
| QESSSTLSTHSTTTSVN [SIN4] | 3.12 ± 0.037 | 3.12 ± 0.028 | 3.04 ± 0.04 | 3.132 ± 0.029 |
| NDSNPSFSFSIPSKNTP [YLR335W/NUP2] | 2.13 ± 0.04 | 2.58 ± 0.046 | 2.42 ± 0.048 | 2.64 ± 0.047 |
| MDNKTPVTLAKVIKVLG [RPS28A] | 1.77 ± 0.22 | 1.16 ± 0.27 | 1.16 ± 0.12 | 2.55 ± 0.27 |
| TMLENITLRGVENIERV [RPO21] | 2.86 ± 0.1 | 2.82 ± 0.12 | 3.23 ± 0.12 | 2.69 ± 0.058 |
| RVLITQRHIAVGKQIVN [RPS9A] | 1.92 ± 0.087 | 2.83 ± 0.12 | 2.22 ± 0.072 | 2.59 ± 0.15 |
| RLAKSTENEIPNLIEKM [BRR2] | 1.5 ± 0.052 | 1.75 ± 0.087 | 1.62 ± 0.08 | 1.68 ± 0.058 |
| LLLNYLELIGVLSINPD [MED7] | 1.78 ± 0.063 | 1.31 ± 0.14 | 1.6 ± 0.067 | 1.49 ± 0.058 |

| Sequence | protein stability index (pdr5∆) | protein stability index (san1∆) | protein stability index (doa10∆) | protein stability index (ubr1∆) |
| --- | --- | --- | --- | --- |
| VSKSEPKFFLGEENRVR [QCR2] | 3.18 ± 0.077 | 3.13 ± 0.053 | 3.42 ± 0.097 | 3.26 ± 0.048 |
| RKSAPVDSWDREFLKVD [SKP1] | 3.27 ± 0.094 | 3.04 ± 0.1 | 3.25 ± 0.13 | 3.19 ± 0.078 |
| ARDLATMTYEEVAKRLV [FAS1] | 3.3 ± 0.082 | 3.12 ± 0.13 | 2.94 ± 0.11 | 3.02 ± 0.073 |
| EQTEGEPKKKRGFLGLF [SRP68] | 3.26 ± 0.11 | 2.9 ± 0.064 | 3.1 ± 0.096 | 2.76 ± 0.066 |
| GVQTAYIDYSSKRYIPS [RRP40] | 2.61 ± 0.057 | 2.48 ± 0.1 | 2.43 ± 0.067 | 2.33 ± 0.068 |
| PRINNISAEDRADTDLA [SNF2] | 2.51 ± 0.14 | 3.02 ± 0.084 | 1.94 ± 0.15 | 2.86 ± 0.086 |
| LKIFEGIPPPYDKKKRV [RPL16B] | 2.51 ± 0.087 | 1.33 ± 0.24 | 1.43 ± 0.15 | 1.51 ± 0.066 |
| HDKNIQKLLKQLDSDAN [ISW2] | 2.52 ± 0.049 | 2.69 ± 0.053 | 2.58 ± 0.049 | 2.93 ± 0.032 |
| SARGIETRPAQVILPMS [FAS2] | 2.93 ± 0.073 | 3 ± 0.068 | 3.06 ± 0.08 | 3.16 ± 0.082 |
| QEDELDEGTALSRLGLK [RPB10] | 3.38 ± 0.086 | 3.5 ± 0.058 | 3.41 ± 0.073 | 3.06 ± 0.079 |
| EWNGKSFQKKSNDKVVE [ISW2] | 3.34 ± 0.058 | 3.01 ± 0.049 | 3.14 ± 0.054 | 3.08 ± 0.064 |
| VPSHVPQVLINRDPVKH [SIR2] | 3 ± 0.088 | 3.06 ± 0.12 | 2.52 ± 0.13 | 2.76 ± 0.098 |
| RFTPGSFTNYITRSFKE [RPS0A] | 3.36 ± 0.1 | 2.93 ± 0.1 | 3.03 ± 0.16 | 3.07 ± 0.11 |
| LPYPTYWSDKKADTDTL [SNF5] | 2.92 ± 0.11 | 3.1 ± 0.07 | 2.91 ± 0.11 | 2.88 ± 0.059 |
| TFAQEKLNTFENDLLQE [SMC3] | 3.26 ± 0.12 | 3.12 ± 0.13 | 3.33 ± 0.18 | 2.81 ± 0.13 |
| VKDWLYDSRPLEEDSKK [PRP8] | 2.91 ± 0.24 | 2.8 ± 0.12 | 2.95 ± 0.19 |  |
| VLSDQVGSEKVLQDLRL [YJL039C/NUP192] |  |  | 3.12 ± 0.2 |  |
| SSNASFNNQGKLDLFKY [MED1] | 3.03 ± 0.038 | 2.71 ± 0.032 | 2.93 ± 0.039 | 3.04 ± 0.041 |
| CLSPGAFLSKVPEFFQT [SRP14] | 2.44 ± 0.13 | 2.87 ± 0.17 | 2.73 ± 0.098 | 2.6 ± 0.068 |
| TTDDEEEPIKKLCYVLG [RET1] | 3.29 ± 0.18 |  | 3.42 ± 0.27 | 3.46 ± 0.17 |
| KNEPDYSKAKYPDLQPF [CDC53] | 2.58 ± 0.089 | 2.06 ± 0.13 | 2.35 ± 0.086 | 2.5 ± 0.085 |
| RQQKLLEDQQRQQKLLL [SWI1] | 3.05 ± 0.062 | 3.03 ± 0.077 | 3.2 ± 0.12 | 3.25 ± 0.069 |
| IEKMSTIVQLCKKKEMS [YIL149C/MLP2] | 1.78 ± 0.055 | 1.59 ± 0.099 | 1.8 ± 0.059 | 1.76 ± 0.051 |
| FDMTNHYNDSQQLRTWK [SRB8] | 3.01 ± 0.084 | 3 ± 0.078 | 2.99 ± 0.079 | 2.9 ± 0.061 |
| RLIVDPNIADYITAKNN [PRP8] | 2.22 ± 0.066 | 2.36 ± 0.26 | 2.15 ± 0.076 | 2.08 ± 0.052 |
| GTSVISMKYDNGVIIAA [PRE4] |  |  | 2.05 ± 0.19 |  |
| EMVENSSENNQIILAYI [SRP68] | 3.11 ± 0.088 | 2.77 ± 0.08 | 3.21 ± 0.1 | 3.35 ± 0.062 |
